Laboratory results taken from patent US20160200782A1.

Legend:
Assay in all cases: cell-based or functional assay
Rse(h) (human) = Rse(h) (human) (UniProt Q06418)
Ret(h) (human) = Ret(h) (human) (UniProt P07949)
mTOR(h) (human) = mTOR(h) (human) (UniProt P42345)
Ab1(Y253F)(h) (human) = Ab1(Y253F)(h) (human) (UniProt P00519)
CSK(h) (human) = CSK(h) (human) (UniProt P41240)
MINK(h) (human) = MINK(h) (human) (UniProt Q8N4C8)
SAPK2a(h) (human) = SAPK2a(h) (human) (UniProt Q16539)
JAK2(h) (human) = JAK2(h) (human) (UniProt O60674)
Sequence of JAK2(h) (human) (O60674 808-1132 limits assumed): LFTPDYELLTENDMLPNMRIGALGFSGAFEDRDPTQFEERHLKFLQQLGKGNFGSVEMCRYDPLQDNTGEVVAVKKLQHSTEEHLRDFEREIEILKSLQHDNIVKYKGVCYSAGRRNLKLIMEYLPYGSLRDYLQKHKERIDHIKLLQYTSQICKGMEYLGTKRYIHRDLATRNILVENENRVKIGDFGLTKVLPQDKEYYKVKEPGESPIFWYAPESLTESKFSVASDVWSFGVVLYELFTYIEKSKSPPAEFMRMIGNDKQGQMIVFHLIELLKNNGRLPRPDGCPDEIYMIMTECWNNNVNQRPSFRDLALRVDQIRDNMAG

Plk3(h) (human) = Plk3(h) (human) (UniProt Q9H4B4)
EGFR(h) (human) = EGFR(h) (human) (UniProt P00533)
NLK(h) (human) = NLK(h) (human) (UniProt Q9UBE8)
Sequence of NLK(h) (human) (Q9UBE8 whole entry): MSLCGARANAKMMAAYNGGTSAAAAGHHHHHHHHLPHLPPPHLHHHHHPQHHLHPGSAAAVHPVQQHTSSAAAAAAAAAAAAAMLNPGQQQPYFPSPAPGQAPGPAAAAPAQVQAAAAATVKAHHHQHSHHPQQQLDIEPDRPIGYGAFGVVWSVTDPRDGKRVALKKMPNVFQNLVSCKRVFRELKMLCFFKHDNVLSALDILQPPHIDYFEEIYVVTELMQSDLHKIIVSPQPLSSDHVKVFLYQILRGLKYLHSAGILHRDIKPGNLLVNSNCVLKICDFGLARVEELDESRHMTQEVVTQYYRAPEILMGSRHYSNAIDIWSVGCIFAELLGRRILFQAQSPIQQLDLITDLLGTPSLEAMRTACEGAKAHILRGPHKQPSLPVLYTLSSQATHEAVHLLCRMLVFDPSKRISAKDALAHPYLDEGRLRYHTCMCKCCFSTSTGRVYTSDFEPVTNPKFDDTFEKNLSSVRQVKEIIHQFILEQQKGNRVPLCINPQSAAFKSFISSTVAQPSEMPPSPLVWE

STK33(h) (human) = STK33(h) (human) (UniProt Q9BYT3)
Met(D1246H)(h) (human) = Met(D1246H)(h) (human) (UniProt P08581)
Pim-2(h) (human) = Pim-2(h) (human) (UniProt Q9P1W9)
Sequence of Pim-2(h) (human) (Q9P1W9 whole entry): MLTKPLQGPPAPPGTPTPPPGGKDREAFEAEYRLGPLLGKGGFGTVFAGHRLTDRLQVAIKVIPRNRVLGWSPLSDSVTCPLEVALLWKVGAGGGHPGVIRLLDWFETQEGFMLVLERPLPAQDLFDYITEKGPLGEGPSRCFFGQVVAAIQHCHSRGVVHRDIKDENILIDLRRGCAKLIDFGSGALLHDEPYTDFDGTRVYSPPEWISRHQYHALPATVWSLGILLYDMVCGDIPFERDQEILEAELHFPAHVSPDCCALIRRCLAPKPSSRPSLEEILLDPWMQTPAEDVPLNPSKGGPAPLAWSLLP

Rsk2(h) (human) = Rsk2(h) (human) (UniProt P51812)
Met(Y1248H)(h) (human) = Met(Y1248H)(h) (human) (UniProt P08581)
PrKX(h) (human) = PrKX(h) (human) (UniProt P51817)
TSSK1(h) (human) = TSSK1(h) (human) (UniProt Q9BXA7)
DMPK(h) (human) = DMPK(h) (human) (UniProt Q09013)
GSK3β(h) (human) = GSK3β(h) (human) (UniProt P49841)
Flt3(h) (human) = Flt3(h) (human) (UniProt P36888)
Sequence of Flt3(h) (human) (P36888 564-993 limits assumed): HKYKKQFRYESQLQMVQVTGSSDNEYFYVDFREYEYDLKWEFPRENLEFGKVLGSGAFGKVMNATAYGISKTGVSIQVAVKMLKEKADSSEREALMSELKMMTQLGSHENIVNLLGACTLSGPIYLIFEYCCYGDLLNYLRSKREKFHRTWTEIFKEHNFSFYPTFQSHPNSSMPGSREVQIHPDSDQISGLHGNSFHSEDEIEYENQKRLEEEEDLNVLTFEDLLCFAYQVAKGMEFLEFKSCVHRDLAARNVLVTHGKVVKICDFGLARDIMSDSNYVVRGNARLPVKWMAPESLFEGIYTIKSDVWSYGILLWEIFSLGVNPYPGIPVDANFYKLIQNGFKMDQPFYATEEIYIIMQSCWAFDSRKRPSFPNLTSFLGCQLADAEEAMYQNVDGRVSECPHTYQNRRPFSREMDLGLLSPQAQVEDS

MSK1(h) (human) = MSK1(h) (human) (UniProt O75582)
Mnk2(h) (human) = Mnk2(h) (human) (UniProt Q9HBH9)
ALK(h) (human) = ALK(h) (human) (UniProt Q9UM73)
Src(1-530)(h) (human) = Src(1-530)(h) (human) (UniProt P12931)
JAK3(h) (human) = JAK3(h) (human) (UniProt P52333)
Sequence of JAK3(h) (human) (P52333 781-1124 limits assumed): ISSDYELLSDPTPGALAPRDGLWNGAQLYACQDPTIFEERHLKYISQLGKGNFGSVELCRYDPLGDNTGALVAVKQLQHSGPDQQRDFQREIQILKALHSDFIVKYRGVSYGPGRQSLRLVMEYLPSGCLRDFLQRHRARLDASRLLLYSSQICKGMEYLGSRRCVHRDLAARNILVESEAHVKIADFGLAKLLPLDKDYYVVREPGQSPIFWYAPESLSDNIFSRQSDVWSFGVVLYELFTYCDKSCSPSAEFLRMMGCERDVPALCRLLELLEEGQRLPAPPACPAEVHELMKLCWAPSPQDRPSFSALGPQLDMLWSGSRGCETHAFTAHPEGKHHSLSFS

TrkB(h) (human) = TrkB(h) (human) (UniProt Q16620)
Sequence of TrkB(h) (human) (Q16620 455-822 limits assumed): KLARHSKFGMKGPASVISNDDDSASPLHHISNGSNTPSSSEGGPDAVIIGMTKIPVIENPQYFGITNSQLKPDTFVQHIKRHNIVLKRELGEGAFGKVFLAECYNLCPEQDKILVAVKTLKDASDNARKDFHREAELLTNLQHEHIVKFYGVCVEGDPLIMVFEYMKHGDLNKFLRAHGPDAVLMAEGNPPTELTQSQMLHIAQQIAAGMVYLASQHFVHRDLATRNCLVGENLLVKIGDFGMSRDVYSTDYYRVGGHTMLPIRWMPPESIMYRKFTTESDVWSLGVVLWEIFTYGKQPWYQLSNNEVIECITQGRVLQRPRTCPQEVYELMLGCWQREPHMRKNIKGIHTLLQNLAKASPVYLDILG

EphA5(h) (human) = EphA5(h) (human) (UniProt P54756)
PTK5(h) (human) = PTK5(h) (human) (UniProt P42685)
MAPK2(h) (human) = MAPK2(h) (human) (UniProt P28482)
TSSK2(h) (human) = TSSK2(h) (human) (UniProt Q96PF2)
LIMK1(h) (human) = LIMK1(h) (human) (UniProt P53667)
GSK3α(h) (human) = GSK3α(h) (human) (UniProt P49840)
cKit(V560G)(h) (human) = cKit(V560G)(h) (human) (UniProt P10721)
Sequence of cKit(V560G)(h) (human) (P10721 544-976 V560G limits assumed): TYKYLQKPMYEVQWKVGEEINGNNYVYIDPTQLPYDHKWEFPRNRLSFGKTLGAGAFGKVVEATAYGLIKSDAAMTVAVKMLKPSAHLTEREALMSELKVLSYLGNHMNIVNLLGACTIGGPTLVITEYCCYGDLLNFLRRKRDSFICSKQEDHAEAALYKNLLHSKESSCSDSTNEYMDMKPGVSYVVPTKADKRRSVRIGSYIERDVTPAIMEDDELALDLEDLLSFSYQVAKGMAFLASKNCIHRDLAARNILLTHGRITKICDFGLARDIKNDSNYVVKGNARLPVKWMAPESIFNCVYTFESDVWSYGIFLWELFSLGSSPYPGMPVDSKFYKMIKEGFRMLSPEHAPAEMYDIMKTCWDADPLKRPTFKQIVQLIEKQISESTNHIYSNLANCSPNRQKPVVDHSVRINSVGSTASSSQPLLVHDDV

MAPKAP-K3(h) (human) = MAPKAP-K3(h) (human) (UniProt Q16644)
PKCµ(h) (human) = PKCµ(h) (human) (UniProt Q15139)
DYRK2(h) (human) = DYRK2(h) (human) (UniProt Q92630)
PDGFRβ(h) (human) = PDGFRβ(h) (human) (UniProt P09619)
Flt1(h) (human) = Flt1(h) (human) (UniProt P17948)
SAPK2a(T106M)(h) (human) = SAPK2a(T106M)(h) (human) (UniProt Q16539)
PKBγ(h) (human) = PKBγ(h) (human) (UniProt Q9Y243)
ASK1(h) (human) = ASK1(h) (human) (UniProt Q99683)
Lck(h) activated (human) = Lck(h) activated (human) (UniProt P06239)
PKCβII(h) (human) = PKCβII(h) (human) (UniProt P05771)
Sequence of PKCβII(h) (human) (P05771 other isoform, or with tags, fused parts or gaps limits assumed): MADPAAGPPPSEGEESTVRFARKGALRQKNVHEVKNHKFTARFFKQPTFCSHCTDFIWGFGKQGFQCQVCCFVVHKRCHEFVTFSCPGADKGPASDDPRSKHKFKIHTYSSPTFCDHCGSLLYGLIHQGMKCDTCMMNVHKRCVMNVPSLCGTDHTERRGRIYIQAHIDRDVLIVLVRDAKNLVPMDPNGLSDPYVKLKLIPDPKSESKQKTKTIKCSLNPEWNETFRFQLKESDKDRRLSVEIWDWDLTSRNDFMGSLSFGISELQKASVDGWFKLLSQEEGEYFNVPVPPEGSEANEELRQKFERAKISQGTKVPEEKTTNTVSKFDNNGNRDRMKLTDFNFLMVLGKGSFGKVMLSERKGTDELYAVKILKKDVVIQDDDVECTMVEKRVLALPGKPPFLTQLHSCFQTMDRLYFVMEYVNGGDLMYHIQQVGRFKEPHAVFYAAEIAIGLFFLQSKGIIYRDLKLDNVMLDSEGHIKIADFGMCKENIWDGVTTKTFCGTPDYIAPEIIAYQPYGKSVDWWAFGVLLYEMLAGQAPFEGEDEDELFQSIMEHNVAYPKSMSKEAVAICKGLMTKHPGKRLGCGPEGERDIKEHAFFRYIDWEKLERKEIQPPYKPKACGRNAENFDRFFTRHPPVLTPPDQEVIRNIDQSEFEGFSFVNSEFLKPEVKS

Fer(h) (human) = Fer(h) (human) (UniProt P16591)
PRAK(h) (human) = PRAK(h) (human) (UniProt Q8IW41)
Rsk1(h) (human) = Rsk1(h) (human) (UniProt Q15418)
PAK4(h) (human) = PAK4(h) (human) (UniProt O96013)
IRR(h) (human) = IRR(h) (human) (UniProt P14616)
Sequence of IRR(h) (human) (P14616 960-1297 limits assumed): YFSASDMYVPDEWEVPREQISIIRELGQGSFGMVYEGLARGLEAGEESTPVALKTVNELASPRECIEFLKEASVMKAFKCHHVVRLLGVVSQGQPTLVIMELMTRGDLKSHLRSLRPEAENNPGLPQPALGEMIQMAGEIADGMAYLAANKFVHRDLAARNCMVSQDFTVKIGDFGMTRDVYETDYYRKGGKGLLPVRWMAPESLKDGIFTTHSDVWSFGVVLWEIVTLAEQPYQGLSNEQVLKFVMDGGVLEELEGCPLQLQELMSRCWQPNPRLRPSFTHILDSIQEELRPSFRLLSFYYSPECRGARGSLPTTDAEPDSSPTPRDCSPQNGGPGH

Aurora-B(h) (human) = Aurora-B(h) (human) (UniProt Q96GD4)
PKCα(h) (human) = PKCα(h) (human) (UniProt P17252)
Src(T341M)(h) (human) = Src(T341M)(h) (human) (UniProt P12931)
CHK2(R145W)(h) (human) = CHK2(R145W)(h) (human) (UniProt O96017)
MEK1(h) (human) = MEK1(h) (human) (UniProt Q02750)
DAPK1(h) (human) = DAPK1(h) (human) (UniProt P53355)
Sequence of DAPK1(h) (human) (P53355 1-289 limits assumed): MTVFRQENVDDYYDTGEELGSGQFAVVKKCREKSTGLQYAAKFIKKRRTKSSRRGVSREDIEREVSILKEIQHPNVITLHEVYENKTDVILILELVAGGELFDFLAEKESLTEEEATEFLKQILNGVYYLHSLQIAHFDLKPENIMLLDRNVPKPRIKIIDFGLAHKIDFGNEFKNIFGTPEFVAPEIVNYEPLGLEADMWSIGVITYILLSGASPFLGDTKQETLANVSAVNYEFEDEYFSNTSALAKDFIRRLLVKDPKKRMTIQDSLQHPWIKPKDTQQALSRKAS

p70S6K(h) (human) = p70S6K(h) (human) (UniProt P23443)
Sequence of p70S6K(h) (human) (P23443 1-421 limits assumed): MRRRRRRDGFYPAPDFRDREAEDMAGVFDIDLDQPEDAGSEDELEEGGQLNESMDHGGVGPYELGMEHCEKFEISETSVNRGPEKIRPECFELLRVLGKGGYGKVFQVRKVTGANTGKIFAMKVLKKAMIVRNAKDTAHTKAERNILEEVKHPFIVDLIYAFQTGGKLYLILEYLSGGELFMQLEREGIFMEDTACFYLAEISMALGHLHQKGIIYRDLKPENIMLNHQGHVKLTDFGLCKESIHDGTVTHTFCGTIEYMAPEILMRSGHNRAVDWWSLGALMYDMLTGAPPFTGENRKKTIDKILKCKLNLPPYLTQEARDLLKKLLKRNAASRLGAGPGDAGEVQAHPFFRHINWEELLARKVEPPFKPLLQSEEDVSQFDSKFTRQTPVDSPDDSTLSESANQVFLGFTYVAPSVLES

Sequence of CSK(h) (human) (P41240 whole entry): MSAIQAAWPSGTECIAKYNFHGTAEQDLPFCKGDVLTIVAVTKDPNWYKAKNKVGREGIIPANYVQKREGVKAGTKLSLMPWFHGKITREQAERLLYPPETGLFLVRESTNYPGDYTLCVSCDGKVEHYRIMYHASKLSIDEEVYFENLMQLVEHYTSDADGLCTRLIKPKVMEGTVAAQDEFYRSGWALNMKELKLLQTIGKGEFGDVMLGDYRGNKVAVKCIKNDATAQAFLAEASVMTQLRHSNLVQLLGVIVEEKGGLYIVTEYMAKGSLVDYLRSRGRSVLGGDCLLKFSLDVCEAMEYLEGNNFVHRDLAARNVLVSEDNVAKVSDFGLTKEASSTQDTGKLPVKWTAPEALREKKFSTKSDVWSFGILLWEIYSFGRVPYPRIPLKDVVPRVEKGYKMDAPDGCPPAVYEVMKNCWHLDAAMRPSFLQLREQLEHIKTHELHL

For MMI-0100 (peptide), the % activity (Rse(h) (human)) was 109%, the % activity (Ret(h) (human)) was 108% and the % activity (mTOR(h) (human)) was 102%. For the same substance, the % activity (Ab1(Y253F)(h) (human)) was 104%, the % activity (CSK(h) (human)) was 70% and the % activity (MINK(h) (human)) was 96%. It also gave a % activity (SAPK2a(h) (human)) of 110%, a % activity (JAK2(h) (human)) of 89% and a % activity (Plk3(h) (human)) of 107%. It also gave a % activity (EGFR(h) (human)) of 95%, a % activity (NLK(h) (human)) of 100% and a % activity (STK33(h) (human)) of 99%. It also gave a % activity (Met(D1246H)(h) (human)) of 99%, a % activity (Pim-2(h) (human)) of 117% and a % activity (Rsk2(h) (human)) of 65%. It also gave a % activity (Met(Y1248H)(h) (human)) of 88%, a % activity (PrKX(h) (human)) of 84% and a % activity (TSSK1(h) (human)) of 99%. It also gave a % activity (DMPK(h) (human)) of 60%, a % activity (GSK3β(h) (human)) of 113% and a % activity (Flt3(h) (human)) of 104%. For the same substance, the % activity (MSK1(h) (human)) was 52%, the % activity (Mnk2(h) (human)) was 94% and the % activity (ALK(h) (human)) was 118%. For the same substance, the % activity (Src(1-530)(h) (human)) was 95%, the % activity (JAK3(h) (human)) was 150% and the % activity (TrkB(h) (human)) was 4%. For the same substance, the % activity (EphA5(h) (human)) was 110%, the % activity (PTK5(h) (human)) was 135% and the % activity (MAPK2(h) (human)) was 98%. For the same substance, the % activity (TSSK2(h) (human)) was 107%, the % activity (LIMK1(h) (human)) was 103% and the % activity (GSK3α(h) (human)) was 183%. It also gave a % activity (cKit(V560G)(h) (human)) of 94%, a % activity (MAPKAP-K3(h) (human)) of 27% and a % activity (PKCµ(h) (human)) of 79%. For the same substance, the % activity (DYRK2(h) (human)) was 99%, the % activity (PDGFRβ(h) (human)) was 116% and the % activity (Flt1(h) (human)) was 109%. The % activity (SAPK2a(T106M)(h) (human)) was 101%, the % activity (PKBγ(h) (human)) was 105% and the % activity (ASK1(h) (human)) was 100%. It also gave a % activity (Lck(h) activated (human)) of 106%, a % activity (PKCβII(h) (human)) of 102% and a % activity (Fer(h) (human)) of 117%. For the same substance, the % activity (PRAK(h) (human)) was 159%, the % activity (Rsk1(h) (human)) was 86% and the % activity (PAK4(h) (human)) was 92%. It also gave a % activity (IRR(h) (human)) of 85%, a % activity (Aurora-B(h) (human)) of 94% and a % activity (PKCα(h) (human)) of 94%. It also gave a % activity (Src(T341M)(h) (human)) of 98%, a % activity (CHK2(R145W)(h) (human)) of 97% and a % activity (MEK1(h) (human)) of 86%. The % activity (DAPK1(h) (human)) was 97% and the % activity (p70S6K(h) (human)) was 89%.
For MMI-0200 (peptide), the % activity (Rse(h) (human)) was 88%, the % activity (Ret(h) (human)) was 96% and the % activity (mTOR(h) (human)) was 110%. It also gave a % activity (Ab1(Y253F)(h) (human)) of 102%, a % activity (CSK(h) (human)) of 33% and a % activity (MINK(h) (human)) of 103%. It also gave a % activity (SAPK2a(h) (human)) of 107%, a % activity (JAK2(h) (human)) of 131% and a % activity (Plk3(h) (human)) of 107%. The % activity (EGFR(h) (human)) was 83%, the % activity (NLK(h) (human)) was 106% and the % activity (STK33(h) (human)) was 98%. The % activity (Met(D1246H)(h) (human)) was 139%, the % activity (Pim-2(h) (human)) was 74% and the % activity (Rsk2(h) (human)) was 101%. It also gave a % activity (Met(Y1248H)(h) (human)) of 153%, a % activity (PrKX(h) (human)) of 112% and a % activity (TSSK1(h) (human)) of 98%. For the same substance, the % activity (DMPK(h) (human)) was 66%, the % activity (GSK3β(h) (human)) was 132% and the % activity (Flt3(h) (human)) was 99%. The % activity (MSK1(h) (human)) was 50%, the % activity (Mnk2(h) (human)) was 106% and the % activity (ALK(h) (human)) was 95%. The % activity (Src(1-530)(h) (human)) was 75%, the % activity (JAK3(h) (human)) was 117% and the % activity (TrkB(h) (human)) was 7%. For the same substance, the % activity (EphA5(h) (human)) was 123%, the % activity (PTK5(h) (human)) was 108% and the % activity (MAPK2(h) (human)) was 105%. It also gave a % activity (TSSK2(h) (human)) of 91%, a % activity (LIMK1(h) (human)) of 109% and a % activity (GSK3α(h) (human)) of 119%. For the same substance, the % activity (cKit(V560G)(h) (human)) was 115%, the % activity (MAPKAP-K3(h) (human)) was 39% and the % activity (PKCµ(h) (human)) was 73%. It also gave a % activity (DYRK2(h) (human)) of 142%, a % activity (PDGFRβ(h) (human)) of 137% and a % activity (Flt1(h) (human)) of 96%. The % activity (SAPK2a(T106M)(h) (human)) was 100%, the % activity (PKBγ(h) (human)) was 103% and the % activity (ASK1(h) (human)) was 101%. It also gave a % activity (Lck(h) activated (human)) of 90%, a % activity (PKCβII(h) (human)) of 100% and a % activity (Fer(h) (human)) of 101%. It also gave a % activity (PRAK(h) (human)) of 115%, a % activity (Rsk1(h) (human)) of 102% and a % activity (PAK4(h) (human)) of 98%. For the same substance, the % activity (IRR(h) (human)) was 69%, the % activity (Aurora-B(h) (human)) was 166% and the % activity (PKCα(h) (human)) was 100%. For the same substance, the % activity (Src(T341M)(h) (human)) was 56%, the % activity (CHK2(R145W)(h) (human)) was 81% and the % activity (MEK1(h) (human)) was 116%. The % activity (DAPK1(h) (human)) was 113% and the % activity (p70S6K(h) (human)) was 84%.
